Source: patent US20220048967A1 (published 2022)
Substitutions are numbered along the chain they refer to. Numbered stars: 1 amine (or outer) side, 2 acyl side, 3 side chain; on linkers, the order of the positions; unused ones are H or OH. Square brackets hold non-standard residues; d marks the D form. Side chains are listed from the residue outwards. Ends that are not written are not given here. * marks the point of attachment. C20 diacid = O=C(O)CCCCCCCCCCCCCCCCCCC(=O)*; C18 diacid = O=C(O)CCCCCCCCCCCCCCCCC(=O)*; αMePhe(2-F) = C[C@](N)(Cc1ccccc1F)C(=O)O; γGlu = O=C(O)[C@H](CCC(=O)[*:2])N[*:1]; αMeF = C[C@](N)(Cc1ccccc1)C(=O)O; αMeP = C[C@@]1(C(=O)O)CCCN1; AEEA = NCCOCCOCC(=O)O; Aib = CC(C)(N)C(=O)O

B1: Example 193 (peptide)
peptide: Y[αMeP]EGTFTSDYSILLDEK([AEEA-AEEA-γGlu-C20 diacid])AQQAFIEYLIEGGPSSGAPPPS-NH2
modifications: N-terminus assumed
SMILES: CC[C@H](C)[C@H](NC(=O)[C@H](CC(C)C)NC(=O)[C@H](Cc1ccc(O)cc1)NC(=O)[C@H](CCC(=O)O)NC(=O)[C@@H](NC(=O)[C@H](Cc1ccccc1)NC(=O)[C@H](C)NC(=O)[C@H](CCC(N)=O)NC(=O)[C@H](CCC(N)=O)NC(=O)[C@H](C)NC(=O)[C@H](CCCCNC(=O)COCCOCCNC(=O)COCCOCCNC(=O)CC[C@H](NC(=O)CCCCCCCCCCCCCCCCCCC(=O)O)C(=O)O)NC(=O)[C@H](CCC(=O)O)NC(=O)[C@H](CC(=O)O)NC(=O)[C@H](CC(C)C)NC(=O)[C@H](CC(C)C)NC(=O)[C@@H](NC(=O)[C@H](CO)NC(=O)[C@H](Cc1ccc(O)cc1)NC(=O)[C@H](CC(=O)O)NC(=O)[C@H](CO)NC(=O)[C@@H](NC(=O)[C@H](Cc1ccccc1)NC(=O)[C@@H](NC(=O)CNC(=O)[C@H](CCC(=O)O)NC(=O)[C@]1(C)CCCN1C(=O)[C@@H](N)Cc1ccc(O)cc1)[C@@H](C)O)[C@@H](C)O)[C@@H](C)CC)[C@@H](C)CC)C(=O)N[C@@H](CCC(=O)O)C(=O)NCC(=O)NCC(=O)N1CCC[C@H]1C(=O)N[C@@H](CO)C(=O)N[C@@H](CO)C(=O)NCC(=O)N[C@@H](C)C(=O)N1CCC[C@H]1C(=O)N1CCC[C@H]1C(=O)N1CCC[C@H]1C(=O)N[C@@H](CO)C(N)=O
B2: Example 194 (peptide)
peptide: Y[αMeP]EGTFTSDYSILLDEK([AEEA-AEEA-γGlu-C20 diacid])AQHAFIEYLIEGGPSSGAPPPS-NH2
modifications: N-terminus assumed
SMILES: CC[C@H](C)[C@H](NC(=O)[C@H](CC(C)C)NC(=O)[C@H](Cc1ccc(O)cc1)NC(=O)[C@H](CCC(=O)O)NC(=O)[C@@H](NC(=O)[C@H](Cc1ccccc1)NC(=O)[C@H](C)NC(=O)[C@H](Cc1c[nH]cn1)NC(=O)[C@H](CCC(N)=O)NC(=O)[C@H](C)NC(=O)[C@H](CCCCNC(=O)COCCOCCNC(=O)COCCOCCNC(=O)CC[C@H](NC(=O)CCCCCCCCCCCCCCCCCCC(=O)O)C(=O)O)NC(=O)[C@H](CCC(=O)O)NC(=O)[C@H](CC(=O)O)NC(=O)[C@H](CC(C)C)NC(=O)[C@H](CC(C)C)NC(=O)[C@@H](NC(=O)[C@H](CO)NC(=O)[C@H](Cc1ccc(O)cc1)NC(=O)[C@H](CC(=O)O)NC(=O)[C@H](CO)NC(=O)[C@@H](NC(=O)[C@H](Cc1ccccc1)NC(=O)[C@@H](NC(=O)CNC(=O)[C@H](CCC(=O)O)NC(=O)[C@]1(C)CCCN1C(=O)[C@@H](N)Cc1ccc(O)cc1)[C@@H](C)O)[C@@H](C)O)[C@@H](C)CC)[C@@H](C)CC)C(=O)N[C@@H](CCC(=O)O)C(=O)NCC(=O)NCC(=O)N1CCC[C@H]1C(=O)N[C@@H](CO)C(=O)N[C@@H](CO)C(=O)NCC(=O)N[C@@H](C)C(=O)N1CCC[C@H]1C(=O)N1CCC[C@H]1C(=O)N1CCC[C@H]1C(=O)N[C@@H](CO)C(N)=O
B3: Example 180 (peptide)
peptide: Y[Aib]EGT[αMePhe(2-F)]TSDHSI[αMeF]LDEK([AEEA-AEEA-γGlu-C18 diacid])AQ[Aib]HFI[dE]YLIEGG-NH2
modifications: N-terminus assumed
SMILES: CC[C@H](C)[C@H](NC(=O)[C@H](CC(C)C)NC(=O)[C@H](Cc1ccc(O)cc1)NC(=O)[C@@H](CCC(=O)O)NC(=O)[C@@H](NC(=O)[C@H](Cc1ccccc1)NC(=O)[C@H](Cc1c[nH]cn1)NC(=O)C(C)(C)NC(=O)[C@H](CCC(N)=O)NC(=O)[C@H](C)NC(=O)[C@H](CCCCNC(=O)COCCOCCNC(=O)COCCOCCNC(=O)CC[C@H](NC(=O)CCCCCCCCCCCCCCCCC(=O)O)C(=O)O)NC(=O)[C@H](CCC(=O)O)NC(=O)[C@H](CC(=O)O)NC(=O)[C@H](CC(C)C)NC(=O)[C@](C)(Cc1ccccc1)NC(=O)[C@@H](NC(=O)[C@H](CO)NC(=O)[C@H](Cc1c[nH]cn1)NC(=O)[C@H](CC(=O)O)NC(=O)[C@H](CO)NC(=O)[C@@H](NC(=O)[C@](C)(Cc1ccccc1F)NC(=O)[C@@H](NC(=O)CNC(=O)[C@H](CCC(=O)O)NC(=O)C(C)(C)NC(=O)[C@@H](N)Cc1ccc(O)cc1)[C@@H](C)O)[C@@H](C)O)[C@@H](C)CC)[C@@H](C)CC)C(=O)N[C@@H](CCC(=O)O)C(=O)NCC(=O)NCC(N)=O
B4: Example 181 (peptide)
peptide: YXEGTXTSDXSIXLDEKAQXEFIXYLIEGGPSSGAPPPS
modifications: Y-Aib-EGT-αMeF(2F)-TSD-3Pal-SI-αMeF-LDEK((2-[2-(2-Amino-ethoxy)-ethoxy]-acetyl)2-(γ-Glu)-CO-(CH2)18-CO2H)AQ-Aib-EFI-(D-Glu)-YLIEGGPSSGAPPPS-NH2
B5: Example 187 (peptide)
peptide: B4 peptide with X10Q
modifications: Y-Aib-EGT-αMeF(2F)-TSDQSI-αMeF-LDEK((2-[2-(2-Amino-ethoxy)-ethoxy]-acetyl)2-(γ-Glu)-CO-(CH2)18-CO2H)AQ-Aib-EFI-(D-Glu)-YLIEGGPSSGAPPPS-NH2
B6: Example 189 (peptide)
peptide: B4 peptide
modifications: Y-Aib-EGT-αMeF(2F)-TSD-4Pal-SI-αMeF-LDEK((2-[2-(2-Amino-ethoxy)-ethoxy]-acetyl)2-(γ-Glu)-CO-(CH2)18-CO2H)AQ-Aib-EFI-Aib-YLIEGGPSSGAPPPS-NH2
B7: Example 185 (peptide)
peptide: B4 peptide
modifications: Y-Aib-EGT-αMeF(2F)-TSD-(D-His)-SI-αMeF-LDEK((2-[2-(2-Amino-ethoxy)-ethoxy]-acetyl)2-(γ-Glu)-CO-(CH2)18-CO2H)AQ-Aib-EFI-(D-Glu)-YLIEGGPSSGAPPPS-NH2
B8: Example 192 (peptide)
peptide: B4 peptide with X10A
modifications: Y-Aib-EGT-αMeF(2F)-TSDASI-αMeF-LDEK((2-[2-(2-Amino-ethoxy)-ethoxy]-acetyl)2-(γ-Glu)-CO-(CH2)18-CO2H)AQ-Aib-EFI-(D-Glu)-YLIEGGPSSGAPPPS-NH2
B9: Example 190 (peptide)
peptide: B4 peptide with Y1H
modifications: H-Aib-EGT-αMeF(2F)-TSD-3Pal-SI-αMeF-LDEK((2-[2-(2-Amino-ethoxy)-ethoxy]-acetyl)2-(γ-Glu)-CO-(CH2)18-CO2H)AQ-Aib-EFI-(D-Glu)-YLIEGGPSSGAPPPS-NH2
B10: Example 182 (peptide)
peptide: B4 peptide
modifications: Y-Aib-EGT-αMeF(2F)-TSD-4Pal-SI-αMeF-LDEK((2-[2-(2-Amino-ethoxy)-ethoxy]-acetyl)2-(γ-Glu)-CO-(CH2)18-CO2H)AQ-Aib-EFI-(D-Glu)-YLIEGGPSSGAPPPS-NH2
B11: Example 183 (peptide)
peptide: B4 peptide with X10L
modifications: Y-Aib-EGT-αMeF(2F)-TSDLSI-αMeF-LDEK((2-[2-(2-Amino-ethoxy)-ethoxy]-acetyl)2-(γ-Glu)-CO-(CH2)18-CO2H)AQ-Aib-EFI-(D-Glu)-YLIEGGPSSGAPPPS-NH2
B12: Example 191 (peptide)
peptide: B4 peptide with X10V
modifications: Y-Aib-EGT-αMeF(2F)-TSDVSI-αMeF-LDEK((2-[2-(2-Amino-ethoxy)-ethoxy]-acetyl)2-(γ-Glu)-CO-(CH2)18-CO2H)AQ-Aib-EFI-(D-Glu)-YLIEGGPSSGAPPPS-NH2
B13: Example 184 (peptide)
peptide: B4 peptide
modifications: Y-Aib-EGT-αMeF(2F)-TSD-(D-Tyr)-SI-αMeF-LDEK((2-[2-(2-Amino-ethoxy)-ethoxy]-acetyl)2-(γ-Glu)-CO-(CH2)18-CO2H)AQ-Aib-EFI-(D-Glu)-YLIEGGPSSGAPPPS-NH2
B14: Example 188 (peptide)
peptide: B4 peptide
modifications: Y-Aib-EGT-αMeF(2F)-TSD-3Pal-SI-αMeF-LDEK((2-[2-(2-Amino-ethoxy)-ethoxy]-acetyl)2-(γ-Glu)-CO-(CH2)18-CO2H)AQ-Aib-EFI-Aib-YLIEGGPSSGAPPPS-NH2

molecular target: T1, human gastric inhibitory peptide receptor (GIPR) (human, UniProt P48546 22-466); test: cell-based or functional assay
T1 sequence (looked up): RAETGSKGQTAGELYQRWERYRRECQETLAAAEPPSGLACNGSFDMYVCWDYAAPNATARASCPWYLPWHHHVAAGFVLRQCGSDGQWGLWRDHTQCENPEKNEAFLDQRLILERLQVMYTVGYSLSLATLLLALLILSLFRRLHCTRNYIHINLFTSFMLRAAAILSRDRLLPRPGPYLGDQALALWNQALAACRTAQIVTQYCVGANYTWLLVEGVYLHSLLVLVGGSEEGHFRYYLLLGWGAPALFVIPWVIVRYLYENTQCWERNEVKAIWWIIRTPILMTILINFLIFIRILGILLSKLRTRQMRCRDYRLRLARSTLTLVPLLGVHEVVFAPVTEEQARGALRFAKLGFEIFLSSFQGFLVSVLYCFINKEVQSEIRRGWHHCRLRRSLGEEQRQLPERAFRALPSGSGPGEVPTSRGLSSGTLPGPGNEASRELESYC

Binder	hGIPR cAMP EC50 ratio	hGIPR cAMP Rel EC50 [nM]
B1	0.538	0.336
B2	0.427	0.423
B3	0.133	0.79
B4	4.1	0.0459
B5	4.61	0.0371
B6	2.41	0.0775
B7	0.185	0.632
B8	2.83	0.0615
B9	0.158	0.738
B10	4.37	0.0442
B11	3.1	0.0615
B12	2.53	0.0645
B13	2.45	0.0477
B14	0.969	0.121

molecular target: human GLP-1 receptor (GLP-1R) (human, UniProt P43220 24-463); test: cell-based or functional assay

Binder	hGLP1R cAMP EC50 ratio	hGLP1R cAMP Rel EC50 [nM]
B1	0.359	0.162
B2	0.205	0.284
B3	0.0212	2.16
B4	0.718	0.0592
B5	0.702	0.0577
B6	0.668	0.0608
B7	0.00739	7.16
B8	1.73	0.0289
B9	2.2	0.0241
B10	0.873	0.0463
B11	0.843	0.0551
B12	1.6	0.0356
B13	0.135	0.392
B14	0.408	0.13
